The values below are quoted from earlier work in paper PMC9902533.

pKd: −log10 of the molar value.

The series addresses Immunoglobulin E kappa (recombinant, clone AbD18705_hIgE, HCA190) (human) (UniProt P01854+P01834). The note with it: 10 mM HEPES pH 7.4, 0.05% Tween-20, room temperature (IgE; fibrils and exosomes same buffer); FUS: 50 mM Tris-HCl pH 7.4, 25 mM KCl, 0.02% Tween-20, on-chip ….

Immunoglobulin E kappa (recombinant, clone AbD18705_hIgE, HCA190) (human), sequence (P01854 whole entry, chain 1 of 2, other chains not shown): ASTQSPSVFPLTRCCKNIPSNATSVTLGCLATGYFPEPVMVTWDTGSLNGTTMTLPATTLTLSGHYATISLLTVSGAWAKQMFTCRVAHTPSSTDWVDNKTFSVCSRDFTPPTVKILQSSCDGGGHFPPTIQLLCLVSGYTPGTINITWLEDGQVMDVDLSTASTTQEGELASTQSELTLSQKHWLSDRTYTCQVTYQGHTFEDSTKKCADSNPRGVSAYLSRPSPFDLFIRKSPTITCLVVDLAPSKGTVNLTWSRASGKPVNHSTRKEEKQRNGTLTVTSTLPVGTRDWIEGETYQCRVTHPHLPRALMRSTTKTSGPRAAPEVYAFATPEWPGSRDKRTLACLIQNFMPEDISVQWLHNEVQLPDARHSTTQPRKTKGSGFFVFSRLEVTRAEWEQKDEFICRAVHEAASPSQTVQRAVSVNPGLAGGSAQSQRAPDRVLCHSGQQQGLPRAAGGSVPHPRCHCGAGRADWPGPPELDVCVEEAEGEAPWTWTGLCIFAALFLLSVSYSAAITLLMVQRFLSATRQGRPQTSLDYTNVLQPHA

By pKd is commonly meant the negative decadic logarithm of the Kd, by convention in mol/L. As for “TGGGGCACGTTTATCCGTCCCTCCTAGTGGCGTGCCCC [IgE aptamer]”, the pKd was 7.30.
